Reference: patent US20180186873A1 (CEPHALON, published 2018)
Where “and” joins values, the source holds several entries; their conditions need not be identical. Equal values may be shown once. Read-outs that look alike come from different tables or passages of the source.

Legend:
[1] = target: T1, recombinant human IL-5 (human, UniProt P05113 20-134); experiment: cell-based or functional assay
[2] = target: T1, recombinant human IL-5
[3] = target: T2, recombinant human IL-5 (human, UniProt P05113 20-134); experiment: SPR
[4] = target: T2, recombinant human IL-5; experiment: SPR; remark: listed apart in the source
[5] = target: T3, mouse IL-5 (mouse, UniProt P04401 21-133); experiment: SPR
T3 sequence (looked up): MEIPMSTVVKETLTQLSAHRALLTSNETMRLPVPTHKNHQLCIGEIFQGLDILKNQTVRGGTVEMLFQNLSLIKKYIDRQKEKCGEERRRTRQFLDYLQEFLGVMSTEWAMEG

[6] = target: T4, guinea pig IL-5 (guinea pig, UniProt O08987 20-135); experiment: SPR
T4 sequence: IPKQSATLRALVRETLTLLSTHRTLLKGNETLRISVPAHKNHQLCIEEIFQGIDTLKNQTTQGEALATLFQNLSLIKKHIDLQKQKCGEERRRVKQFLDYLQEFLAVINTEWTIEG

[7] = target: recombinant human growth hormone (human, UniProt P01241 27-217); experiment: SPR
[8] = target: T5, recombinant human macrophage colony stimulating factor (human, UniProt P09603 33-190, limits assumed); experiment: SPR
T5 sequence (looked up): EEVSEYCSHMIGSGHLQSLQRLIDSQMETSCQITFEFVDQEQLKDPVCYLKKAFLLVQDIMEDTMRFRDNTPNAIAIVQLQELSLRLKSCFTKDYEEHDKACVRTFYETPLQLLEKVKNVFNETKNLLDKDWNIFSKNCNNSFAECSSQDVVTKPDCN

[9] = target: recombinant human granulocyte macrophage colony stimulating factor (human, UniProt P04141 18-144); experiment: SPR
[10] = target: T6, rat IL-5 (rat, UniProt Q08125 20-132); experiment: SPR
T6 sequence (looked up): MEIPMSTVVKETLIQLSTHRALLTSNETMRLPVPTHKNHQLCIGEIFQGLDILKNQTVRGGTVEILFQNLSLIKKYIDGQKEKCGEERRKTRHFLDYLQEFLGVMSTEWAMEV

[11] = target: recombinant human IL-2 (human, UniProt P60568 21-153); experiment: SPR
[12] = target: T7, recombinant human IL-3 (human, UniProt P08700 20-152); experiment: SPR
T7 sequence (looked up): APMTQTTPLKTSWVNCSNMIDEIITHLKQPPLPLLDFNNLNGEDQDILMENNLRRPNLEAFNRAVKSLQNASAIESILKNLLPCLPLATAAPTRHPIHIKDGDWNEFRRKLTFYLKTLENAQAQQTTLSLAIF

[13] = target: T8, recombinant human IL-4 (human, UniProt P05112 25-153); experiment: SPR
T8 sequence (looked up): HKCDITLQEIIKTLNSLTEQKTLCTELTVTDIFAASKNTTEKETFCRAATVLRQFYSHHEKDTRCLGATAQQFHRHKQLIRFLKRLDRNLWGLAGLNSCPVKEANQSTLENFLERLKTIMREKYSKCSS

[14] = target: T9, recombinant human IL-5 (human, UniProt P05113 20-134); experiment: SPR, Protein A capture
[15] = target: T9, recombinant human IL-5; experiment: SPR, Protein A capture; remark: listed apart in the source
[16] = target: T9, recombinant human IL-5; experiment: SPR, Protein A capture; remark: listed apart in the source
[17] = target: T9, recombinant human IL-5; experiment: SPR, Protein A capture; remark: listed apart in the source
[18] = target: T9, recombinant human IL-5; experiment: SPR, Protein A capture; remark: listed apart in the source
[19] = target: T9, recombinant human IL-5; experiment: SPR, Protein A capture; remark: listed apart in the source
[20] = target: T9, recombinant human IL-5; experiment: SPR, Protein A capture; remark: listed apart in the source
[21] = target: T9, recombinant human IL-5; experiment: SPR, Protein A capture; remark: listed apart in the source
[22] = target: T9, recombinant human IL-5; experiment: SPR, Protein A capture; remark: listed apart in the source
[23] = target: T9, recombinant human IL-5; experiment: SPR, Protein A capture; remark: listed apart in the source

recombinant human IL-2, sequence (P60568 21-153 limits assumed): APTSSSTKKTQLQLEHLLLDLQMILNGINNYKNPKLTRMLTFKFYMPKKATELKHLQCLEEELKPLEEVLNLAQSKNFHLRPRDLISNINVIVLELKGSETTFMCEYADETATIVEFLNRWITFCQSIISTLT
recombinant human granulocyte macrophage colony stimulating factor, sequence (P04141 18-144 limits assumed): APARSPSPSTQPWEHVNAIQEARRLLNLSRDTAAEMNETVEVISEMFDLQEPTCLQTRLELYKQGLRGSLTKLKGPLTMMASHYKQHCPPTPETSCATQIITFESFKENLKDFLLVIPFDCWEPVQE
recombinant human growth hormone, sequence (P01241 27-217 limits assumed): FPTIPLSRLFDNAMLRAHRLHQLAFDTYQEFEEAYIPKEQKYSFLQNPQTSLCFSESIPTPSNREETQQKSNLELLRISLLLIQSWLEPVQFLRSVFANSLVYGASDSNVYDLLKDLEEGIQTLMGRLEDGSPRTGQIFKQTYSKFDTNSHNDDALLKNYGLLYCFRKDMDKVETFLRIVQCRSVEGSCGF

B1: antibody 3A5 (antibody, human IgG1, lambda, V domains shown)
VH: QVQLQESGPGLVKPSQTLSLTCTVSGGSISNGGYYWSWIRQHPGKGLEWIGYIYYSGSTYYNPSLKSRVSISVDTSKNQFSLKLNSVTAADTAVYYCASLGNWFDYWGQGTLVTVSS
VL: SSILTQPPSVSVAPGQTARITCGGNNIGSKNVYWYQQKPGQAPVLVVHDDSDRPSGIPERFSGSNSGNTATLTISRVEVGDEADYSCQVWYSSSDHVVFGGGTKLTVLG
[1]
  IC50 (pM) in TF1.6G4: 35.1 pM
[2]
  Kd: 0.036 nM

B2: 3A5.294 (antibody, human IgG4 S228P, lambda, V domains shown)
VH: QVQLQESGPGLVKPSQTLSLTCTVSGGSISNGGYYWSWIRQHPGKGLEWIGYIYYSGSTYYNPSLKSRVTISVDTSKNQFSLKLSSVTAADTAVYYCASLGNWFDYWGQGTLVTVSS
VL: SYVLTQPPSVSVAPGQTARITCGGNNIGSKNVYWYQQKPGQAPVLVVHDDSDRPSGIPERFSGSNSGNTATLTISRVEVGDEADYSCQVWDSSSDHVAFGGGTKLTVLG
[3]
  Kd: 0.123 nM
[4]
  % 3A5.040 kd: 155%

B3: antibody 3A5.046 (antibody, human IgG4 S228P, lambda)
heavy: QVQLQESGPGLVKPSQTLSLTCTVSGGSISNGGYYWSWIRQHPGKGLEWIGYIYYSGSTYYNPSLKSRVTISVDTSKNQFSLKLSSVTAADTAVYYCASLGNWFDYWGQGTLVTVSSASTKGPSVFPLAPCSRSTSESTAALGCLVKDYFPEPVTVSWNSGALTSGVHTFPAVLQSSGLYSLSSVVTVPSSSLGTKTYTCNVDHKPSNTKVDKRVESKYGPPCPPCPAPEFLGGPSVFLFPPKPKDTLYITREPEVTCVVVDVSQEDPEVQFNWYVDGVEVHNAKTKPREEQFNSTYRVVSVLTVLHQDWLNGKEYKCKVSNKGLPSSIEKTISKAKGQPREPQVYTLPPSQEEMTKNQVSLTCLVKGFYPSDIAVEWESNGQPENNYKTTPPVLDSDGSFFLYSRLTVDKSRWQEGNVFSCSVMHEALHNHYTQKSLSLSLG
light: SYVLTQPPSVSVAPGQTARITCGGNNIGSKNVYWYQQKPGQAPVLVVHDDSDRPSGIPERFSGSNSGNTATLTISRVEVGDEADYSCQVWDSSSDHVVFGGGTKLTVLGQPKAAPSVTLFPPSSEELQANKATLVCLISDFYPGAVTVAWKADSSPVKAGVETTTPSKQSNNKYAASSYLSLTPEQWKSHRSYSCQVTHEGSTVEKTVAPTECS
[5]
  binding result: no binding (tested: 10 µg/ml)
[6]
  binding result: no binding (tested: 10 µg/ml)
[7]
  binding result: no binding (tested: 1 µg/ml)
[8]
  binding result: no binding (tested: 1 µg/ml)
[9]
  binding result: no binding (tested: 1 µg/ml)
[10]
  binding result: no binding (tested: 10 µg/ml)
[11]
  binding result: no binding (tested: 1 µg/ml)
[12]
  binding result: no binding (tested: 1 µg/ml)
[13]
  binding result: no binding (tested: 1 µg/ml)

B4: 3A5.040 (antibody, human IgG4 S228P, lambda)
heavy: not shown
light: SYVLTQPPSVSVAPGQTARITCGGNNIGSKNVYWYQQKPGQAPVLVVHDDSDRPSGIPERFSGSNSGNTATLTISRVEVGDEADYSCQVWDSSSDHVVFGGGTKLTVLGQPKAAPSVTLFPPSSEELQANKATLVCLISDFYPGAVTVAWKADSSPVKAGVETTTPSKQSNNKYAASSYLSLTPEQWKSHRSYSCQVTHEGSTVEKTVAPTECS
[14]
  Kd: 0.148 nM and 0.193 nM
  koff: 0.000214 s⁻¹ and 0.000285 s⁻¹
  kon: 1.44e+06 M⁻¹ s⁻¹ and 1.48e+06 M⁻¹ s⁻¹
[15]
  % 3A5.040 kd: 94%
[16]
  Kd: 0.18 nM
  koff: 0.000246 s⁻¹
  kon: 1.36e+06 M⁻¹ s⁻¹
[17]
  Kd: 0.175 nM
  koff: 0.000245 s⁻¹
  kon: 1.4e+06 M⁻¹ s⁻¹
[18]
  Kd: 0.163 nM
  koff: 0.000229 s⁻¹
  kon: 1.41e+06 M⁻¹ s⁻¹
[19]
  Kd: 0.147 nM
  koff: 0.000213 s⁻¹
  kon: 1.45e+06 M⁻¹ s⁻¹
[20]
  Kd: 0.167 nM and 0.174 nM
  koff: 0.000237 s⁻¹ and 0.000252 s⁻¹
  kon: 1.42e+06 M⁻¹ s⁻¹ and 1.45e+06 M⁻¹ s⁻¹
[21]
  Kd: 0.171 nM
  koff: 0.000252 s⁻¹
  kon: 1.47e+06 M⁻¹ s⁻¹
[22]
  Kd: 0.161 nM and 0.168 nM
  koff: 0.000232 s⁻¹ and 0.000239 s⁻¹
  kon: 1.44e+06 M⁻¹ s⁻¹ and 1.43e+06 M⁻¹ s⁻¹
[23]
  Kd: 0.193 nM and 0.16 nM
  koff: 0.000261 s⁻¹ and 0.000232 s⁻¹
  kon: 1.36e+06 M⁻¹ s⁻¹ and 1.45e+06 M⁻¹ s⁻¹
